For 2 substances, Kd results are on record in paper PMC10925414.

Assay [1] concerns the target γC3 EC1-EC4 wild type (PcdhγC3 EC1-EC4 ectodomain fragment) (mouse). The experiment in a line: AUC; sedimentation equilibrium of single proteins; 1.1, 0.73 and 0.37 mg/mL; 10 mM Tris, 150 mM NaCl, 3 mM CaCl2, pH 8.0, 250 mM imidazole; 25°C; 11000-20000 rpm; interference at 675 nm; global fit in SedPhat; dimer to monomers.
Assay [2] concerns the target γC3 protocadherin EC1-EC4 (Mus musculus). The note with it: cited from earlier work.

The term Kd denotes the free concentration of one partner at which half of the binding sites on the other are occupied at equilibrium, for simple one-to-one binding. As to “γC3 EC1-EC4 wild type (PcdhγC3 EC1-EC4 ectodomain fragment) (domain or fragment)”, in assay [1], the Kd is 115 µM. On to “γC3 protocadherin EC1-EC4 (from UniProt Q9UN70)”, for which the Kd in assay [2] is 115 µM.
